In test [1] the target is T1, full-length human OX40 protein (human, UniProt P43489 29-277).
T1 sequence (looked up): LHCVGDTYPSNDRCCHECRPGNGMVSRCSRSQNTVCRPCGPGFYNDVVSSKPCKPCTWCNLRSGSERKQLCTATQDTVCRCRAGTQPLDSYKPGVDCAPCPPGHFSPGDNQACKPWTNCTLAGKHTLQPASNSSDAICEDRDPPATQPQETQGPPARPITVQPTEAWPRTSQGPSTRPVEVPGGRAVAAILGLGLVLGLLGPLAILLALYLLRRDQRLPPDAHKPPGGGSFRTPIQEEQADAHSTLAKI
The test can be described thus: FACS on Jurkat-hOX40 cells, PE anti-human FC secondary antibody. As to the method: Jurkat-hOX40 stable cell lines constructed in Example 2.1 were expanded and cultured in a cell culture flask, and cells in the logarithmic growth phase were counted. The cells were centrifuged at 1000 rpm for 5 min and then resuspended in FACS buffer (PBS+1% FBS) to 2×10⁶ cells/mL, and added to a 96-well FACS culture plate at 200 μL per well. After centrifugation at 1000 rpm for 5 min, the supernatant was removed, and a series of concentration gradients of purified anti-human OX40 antibodies to be tested or isotype control were added at 200 μL per well, incubated at 4° C. for 1 hour in the dark, centrifuged at 1000 rpm for 5 min, and then added with 200 μL of PE fluorescently labeled anti-human FC secondary antibody (purchased from Invitrogen) per well, and incubated at 4° C. for 1 hour in the dark. After washing twice with FACS buffer, PBS buffer containing 1% paraformaldehyde at 200 μL per well was added to resuspend cells, and a FACS instrument (BD Accuri C6) was used for detection and analysis.

The target in test [2] is T1, full-length human OX40 protein. The test can be described thus: FACS on L929-hOX40 cells, PE anti-human FC secondary antibody. Here is the method:
The L929-hOX40 stable cell line constructed in Example 2.1 was cultured and expanded to 90% confluence in a cell culture flask. After washing with PBS, the cell culture was digested with 0.25% Trypsin (purchased from Thermofisher) to form a single-cell suspension, neutralized with 10% FBS-containing medium, and counted. After centrifugation at 1000 rpm for 5 min, the cells were resuspended to 2×10⁶ cells/mL with FACS buffer (PBS+1% FBS), added to a 96-well FACS culture plate at 200 μL per well, centrifuged at 1000 rpm for 5 min and the supernatant was removed. A series of concentration gradients of anti-human OX40 antibodies to be tested or isotype control were added at 200 μL per well, and incubated at 4° C. for 1 hour in the dark. After centrifugation at 1000 rpm for 5 min, 200 μL of PE fluorescently labeled anti-human FC secondary antibody (purchased from Invitrogen) was added to each well, and incubated at 4° C. for 1 hour in the dark. After washing twice with FACS buffer, PBS buffer containing 1% paraformaldehyde at 200 μL per well was added to resuspend the cells, and a FACS instrument (BD Accuri C6) was used for detection and analysis.

Test [3] has the same target. As to the kind of experiment: cell-based or functional assay.
The target of a further test is T2, OX40-mFc protein (UniProt P43489 29-214).
T2 sequence (looked up): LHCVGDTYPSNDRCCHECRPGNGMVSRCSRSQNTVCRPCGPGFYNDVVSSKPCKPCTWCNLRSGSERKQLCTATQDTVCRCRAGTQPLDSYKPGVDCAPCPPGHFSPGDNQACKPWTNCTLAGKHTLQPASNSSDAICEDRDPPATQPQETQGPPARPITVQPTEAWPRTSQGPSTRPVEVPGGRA
The test can be described thus: phage ELISA, monoclonal phage supernatant on OX40-mFc.

In another test the target is Milk. The test can be described thus: phage ELISA, monoclonal phage supernatant on milk (background control).
A further test addresses T3, OX40 (CRD3-4human) (human, UniProt P43489 108-277, limits assumed).
T3 construct: domain: CRD3-4; Named only in the results sentence; its construction is not described; also called CHOS-OX40 (CRD3-4human)
T3 sequence (looked up): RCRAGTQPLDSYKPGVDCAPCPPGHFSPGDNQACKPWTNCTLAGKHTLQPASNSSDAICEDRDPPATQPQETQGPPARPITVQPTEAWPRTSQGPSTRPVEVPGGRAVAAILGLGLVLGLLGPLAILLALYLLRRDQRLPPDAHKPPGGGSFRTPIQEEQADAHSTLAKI
The test can be described thus: FACS on transiently transfected CHO-S cells. An excerpt:
(§1) Transient transfection of OX40 expression vector: CHO-S cells were revived, and passaged for at least 2 times, and then seeded into a 6-well plate at a density of 1×10⁶ cells/well. At the following day, the above expression vectors expressing different domains of OX40 were transfected into CHO-S cells by PEI transfection method.

The target of a further test is T4, murine full-length OX40 (murine, UniProt P47741 20-272).
T4 construct: whole, on cells; also called CHOS-OX40 (mus); PCMV3-OX40 (Mus)
T4 sequence (looked up): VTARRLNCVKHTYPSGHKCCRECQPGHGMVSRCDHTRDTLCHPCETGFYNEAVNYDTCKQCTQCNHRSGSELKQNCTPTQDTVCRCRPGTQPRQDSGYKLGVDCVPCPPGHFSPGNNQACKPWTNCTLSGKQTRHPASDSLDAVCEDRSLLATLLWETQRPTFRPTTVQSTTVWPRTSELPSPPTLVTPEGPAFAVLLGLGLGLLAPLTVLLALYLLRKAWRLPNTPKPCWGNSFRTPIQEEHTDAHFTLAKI
As to the kind of experiment: FACS on transiently transfected CHO-S cells.
Excerpt: as §1

The source of these data is patent US20220348670A1 (BIODURO BEIJING, published 2022).

On to Isotype control (human IgG) (antibody), for which the Maximum mean fluorescence intensity value (MFI) in test [1] came to 999 MFI; in test [2], 8960 MFI. The same molecule gave a Maximum value (RLU), NF-kB reporter gene assay in test [3] of 2650 RLU.

B1: OX40 BC3-4 (phage-displayed VHH clone) (VHH)
VHH: EVQLVESGGGLVQPGGSLRLSCAASGFIFSAYFMGWFRQAPGKGRELVAAINSNDDITYYPDSVEGRFTISRDNAKRMVYLQMNSLRAEDTAVYYCAAWLGAENYGYWGQGTQVTVSS
notes: Tested as phage in monoclonal culture supernatant (M13 display), not as purified protein; the phage coat fusion is not described
As for B1, the “ELISA Results (OD450)” value stood at 3.31 OD450 with OX40-mFc protein and 0.045 OD450 with Milk.

B2: anti-human OX40 antibody BC3-4 (OX40 VHH-Fc) (Fc fusion)
chain: EVQLVESGGGLVQPGGSLRLSCAASGFIFSAYFMGWFRQAPGKGRELVAAINSNDDITYYPDSVEGRFTISRDNAKRMVYLQMNSLRAEDTAVYYCAAWLGAENYGYWGQGTQVTVSS
notes: VHH fused through a linker to human IgG Fc, expressed in ExpiCHO, purified on Protein A; also called OX40 BC3-4; OX40 VHH-Fc antibody; not shown: linker encoded by the CMV-12GS-FC vector; human IgG FC fragment (hFC)
For B2, in test [1], a half-maximal effect (EC50) was put at 0.395 nM and the “Maximum mean fluorescence intensity value (MFI)” value is 24000 MFI. For the same molecule, in test [2], the concentration for a half-maximal effect (EC50) stood at 0.862 nM and the “Maximum mean fluorescence intensity value (MFI)” value came to 308000 MFI. In test [3], the “EC50, NF-kB reporter gene assay” value was 0.175 nM and the “Maximum value (RLU), NF-kB reporter gene assay” value (from here on “Maximum value (RLU)”) came out at 55700 RLU. The binding result with OX40 (CRD3-4human) is reported as “no binding”. Besides, the binding result with murine full-length OX40 is recorded as “no binding”.

B3: OX40 BC3-6 (phage-displayed VHH clone) (VHH)
VHH: EVQLVESGGGLVQPGGSLRLSCAASGSILDSNLMGWFRQAPGKGRELVASINSYDDNTYYPDSVEGRFTISRDNAKRMVYLQMNSLRAEDTAVYYCAAQVFVGWPYTDQMHDYWGQGTQVTVSS
notes: as for B1
Regarding B3, the figures for the “ELISA Results (OD450)” value in the test with OX40-mFc protein and in the test with Milk were 3.21 OD450 and 0.045 OD450, respectively.

B4: anti-human OX40 antibody BC3-6 (OX40 VHH-Fc) (Fc fusion)
chain: EVQLVESGGGLVQPGGSLRLSCAASGSILDSNLMGWFRQAPGKGRELVASINSYDDNTYYPDSVEGRFTISRDNAKRMVYLQMNSLRAEDTAVYYCAAQVFVGWPYTDQMHDYWGQGTQVTVSS
notes: VHH fused through a linker to human IgG Fc, expressed in ExpiCHO, purified on Protein A; also called OX40 BC3-6; OX40 VHH-Fc antibody; not shown: linker encoded by the CMV-12GS-FC vector; human IgG FC fragment (hFC)
For the molecule B4, in test [1], the EC50 came to 0.683 nM and the “Maximum mean fluorescence intensity value (MFI)” value amounted to 12800 MFI. In test [2], it took 0.545 nM to reach a half-maximal effect (EC50) and the “Maximum mean fluorescence intensity value (MFI)” value worked out at 198000 MFI. In test [3], the “EC50, NF-kB reporter gene assay” value was determined as 0.162 nM and the “Maximum value (RLU)” value is 50300 RLU. The binding result with OX40 (CRD3-4human) is “no binding”. Also, in the test with murine full-length OX40, the binding result is “no binding”.

B5: OX40 BC3-1 (phage-displayed VHH clone) (VHH)
VHH: EVQLVESGGGLVQPGGSLRLSCAASGSIFSVYVMGWFRQAPGKGRELVAAITPFDDNTYYPDSVEGRFTISRDNAKRMVYLQMNSLRAEDTAVYYCAADWEWPEYNYWGQGTQVTVSS
notes: as for B1
As for B5, the results for the “ELISA Results (OD450)” value with OX40-mFc protein and with Milk were 3.45 OD450 and 0.047 OD450, respectively.

B6: anti-human OX40 antibody BC3-1 (OX40 VHH-Fc) (Fc fusion)
chain: EVQLVESGGGLVQPGGSLRLSCAASGSIFSVYVMGWFRQAPGKGRELVAAITPFDDNTYYPDSVEGRFTISRDNAKRMVYLQMNSLRAEDTAVYYCAADWEWPEYNYWGQGTQVTVSS
notes: VHH fused through a linker to human IgG Fc, expressed in ExpiCHO, purified on Protein A; also called OX40 BC3-1; OX40 VHH-Fc antibody; not shown: linker encoded by the CMV-12GS-FC vector; human IgG FC fragment (hFC)
With B6, in test [1], a half-maximal response (EC50) required 0.257 nM and the “Maximum mean fluorescence intensity value (MFI)” value stood at 17500 MFI. Besides, in test [2], the half-maximal effective concentration (EC50) was found to be 0.488 nM and the “Maximum mean fluorescence intensity value (MFI)” value was determined as 285000 MFI. Also, in test [3], the “EC50, NF-kB reporter gene assay” value is 0.209 nM and the “Maximum value (RLU)” value worked out at 53400 RLU. Also, in the test with OX40 (CRD3-4human), the binding result is “no binding”. In addition, the binding result with murine full-length OX40 was “no binding”.

B7: OX40 BC3-7 (phage-displayed VHH clone) (VHH)
VHH: EVQLVESGGGLVQPGGSLRLSCAASGSIYDFDVMGWFRQAPGKGRELVAAINSFGDITYYPDSVEGRFTISRDNAKRMVYLQMNSLRAEDTAVYYCAADWHVLIQQVLGYWGQGTQVTVSS
notes: as for B1
For the molecule B7, the “ELISA Results (OD450)” value amounted to 3.12 OD450 in the test with OX40-mFc protein and 0.045 OD450 with Milk.

B8: anti-human OX40 antibody BC3-7 (OX40 VHH-Fc) (Fc fusion)
chain: EVQLVESGGGLVQPGGSLRLSCAASGSIYDFDVMGWFRQAPGKGRELVAAINSFGDITYYPDSVEGRFTISRDNAKRMVYLQMNSLRAEDTAVYYCAADWHVLIQQVLGYWGQGTQVTVSS
notes: VHH fused through a linker to human IgG Fc, expressed in ExpiCHO, purified on Protein A; also called OX40 BC3-7; OX40 VHH-Fc antibody; not shown: linker encoded by the CMV-12GS-FC vector; human IgG FC fragment (hFC)
Take B8: in test [1], the concentration giving a half-maximal response (EC50) is 0.548 nM and the “Maximum mean fluorescence intensity value (MFI)” value is 24100 MFI. Besides, in test [2], the EC50 amounted to 0.693 nM and the “Maximum mean fluorescence intensity value (MFI)” value worked out at 327000 MFI. In test [3], the “EC50, NF-kB reporter gene assay” value stood at 0.13 nM and the “Maximum value (RLU)” value was 48400 RLU. In addition, in the test with OX40 (CRD3-4human), the binding result is “no binding”. Further, the binding result with murine full-length OX40 is given as “no binding”.
